# Assay results as given in patent publication US20030190705A1 (SUNOL MOLECULAR, published 2003).
# B1: chimeric anti-tissue factor antibody cH36 (antibody, human IgG4, V domains shown)
# VH: EIQLQQSGPELVKPGASVQVSCKTSGYSFTDYNVYWVRQSHGKSLEWIGYIDPYNGITIYDQNFKGKATLTVDKSSTTAFMHLNSLTSDDSAVYFCARDVTTALDFWGQGTTLTVSS
# VL: DIQMTQSPASQSASLGESVTITCLASQTIDTWLAWYQQKPGKSPQLLIYAATNLADGVPSRFSGSGSGTKFSFKISSLQAEDFVNYYCQQVYSSPFTFGAGTKLELK
# B2: hOAT (humanized IgG One Anti-Tissue Factor antibody) (antibody, V domains shown)
# VH: QIQLVQSGGEVKKPGASVRVSCKASGYSFTDYNVYWVRQSPGKGLEWIGYIDPYNGITIYDQNLKGKATLTVDKSTSTAYMELSSLRSEDTAVYFCARDVTTALDFWGQGTTVTVSS
# VL: DIQMTQSPASLSASVGDRVTITCLASQTIDTWLAWYLQKPGKSPQLLIYAATNLADGVPSRFSGSGSGTDFSFTISSLQPEDFATYYCQQVYSSPFTFGQGTKLEIK
# B3: hFAT (humanized IgG Four Anti-Tissue Factor antibody) (antibody, V domains shown)
# VH: B2 VH
# VL: B2 VL
# Target: T1, lipidated recombinant human tissue factor (e.g., Innovin) (human, UniProt P13726 33-295, limits assumed)
# Assay: cell-based or functional assay
PT Time (in seconds) at 12.9 nM anti-TF antibody [s],PT Time (in seconds) at 25.8 nM anti-TF antibody [s],PT Time (in seconds) at 51.6 nM anti-TF antibody [s],Binder
19.8,40,101,B1
18.9,33.7,82.1,B2
20.5,41.7,94.8,B3

# Target: T1, lipidated recombinant human tissue …
# Assay: cell-based or functional assay
# Remark: another data set of the same source
row,inhibition of TF function (PT assay) [%],Binder
1,~95,B1
2,~95,B2
3,~95,B3
